From patent publication US20240425589A1, “CYTOTOXICITY-INDUCING THERAPEUTIC AGENT FOR USE IN TREATMENT OF CANCER” (CHUGAI SEIYAKU KABUSHIKI KAISHA, priority 2021, published 2024)

Legend:
human CLDN6 VLP = target: T1, human CLDN6 VLP (Homo sapiens, UniProt P56747); assay: Biacore T200 SPR affinity to human CLDN6 VLP; format: binding; conditions: human CLDN6, 25 degree C, pH 7.4
T1 sequence (P56747 1-220): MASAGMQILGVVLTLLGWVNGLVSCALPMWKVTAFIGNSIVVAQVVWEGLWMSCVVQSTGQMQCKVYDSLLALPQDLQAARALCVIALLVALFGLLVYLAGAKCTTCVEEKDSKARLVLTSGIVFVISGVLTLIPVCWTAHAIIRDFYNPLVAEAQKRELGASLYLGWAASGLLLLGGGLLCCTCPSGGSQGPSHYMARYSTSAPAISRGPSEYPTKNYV
Procedure: (§1) The binding affinity of the anti-CLDN6/Dual-Fab tri-specific antibody against human and cynomolgus (cyno) CLDN6 VLP (virus-like particle) at pH 7.4 was determined at 25 degree C. using Biacore T200 instrument (GE Healthcare). Anti-human CD81 (BD Pharmingen) antibody was immobilized onto all flow cells of a C1 sensor chip using amine coupling kit (GE Healthcare). Human and cyno CLDN6 VLP were captured onto the sensor surface by the anti-human CD81 antibody. Each VLP was 5-fold dilution by buffer (20 mM NaPhosphate, 150 mM NaCl, 0.1 mg/mL BSA, 0.005% NaN3, pH 7.4). Tested antibody was prepared in buffer (20 mM NaPhosphate, 150 mM NaCl, 0.1 mg/mL BSA, 0.005% NaN3, pH 7.4). Anti-CLDN6/Dual-Fab tri-specific antibody was injected at 50 and 200 nM, followed by dissociation. Sensor surface was regenerated each cycle with 0.1% SDS and 100 mM H3PO4. […] Binding affinities were determined by processing and fitting the data to 1:1 binding model using Biacore T200 Evaluation software, version 2.0 (GE Healthcare).

cyno CLDN6 VLP = assay: Biacore T200 SPR affinity to cyno CLDN6 VLP; format: binding, cynomolgus; conditions: cyno CLDN6, 25 degree C, pH 7.4
Procedure: as §1

[1] = Single dose toxicology study; format: in vivo, cynomolgus monkey
Procedure: Potential toxicity of PPU4135 antibody (anti-CLDN6/Dual-Fab tri-specific antibody) was evaluated in toxicity study using cynomolgus monkeys compared with CS3348 antibody (anti-CLDN6/CD3 bispecific antibody). Because both PPU4135 and CS3348 antibodies cross-reacted with their antigens of cynomolgus monkey, cynomolgus monkey was selected as the animal species for evaluations in the in vivo toxicology studies. Since toxicological findings seemed to be more sensitive in male than female animals in the toxicity study with CS3348 (FIG. 14), 2 males were used for evaluation of the PPU4135-mediated toxicity. In these studies, dose levels were set at 100 (for CS3348) or 90 (for PPU4135) micro g/kg, which were approximately 2.57-fold efficacious concentration producing 80% of the maximal response.

[2] = system: GloResponse NFAT-luc2 Jurkat cells with OVCAR3 and H1435 cells; assay: NFAT-luc2 Jurkat luciferase assay with chemotherapeutic-treated cancer cells; format: cell-based, human; conditions: cells treated with cisplatin or carboplatin for 5 days vs untreated
Procedure: Next, measurement was carried out based on a luciferase assay system using GloResponse NFAT-luc2 Jurkat cells (Promega, J1601) to see if T-cell-activation ability of CS4135 antibody via CD3 binding will change depending on the presence or absence of treatment by a chemotherapeutic agent.
The assay was performed as follows. First, as described above, OVCAR3 and H1435 cells treated with a chemotherapeutic agent for 5 days were detached from a culture flask and plated at 25 μL/well (2×10^4 cells) onto a white flat-bottom 96-well plate (Coster #3917). Next, 1×10^5 Jurkat/NFAT-RE reporter cell line together with the CS4135 antibody at a concentration selected from 0.003, 0.03, 0.3, 3, or 30 nM were added at 25 μL/well. After culturing overnight at 37° C., Bio-Glo reagent (Promega #G7941) was added at 75 μL/well followed by further incubation at room temperature for 10 minutes. Then, luminescence arose from activated Jurkat cells was measured using an EnSpire (PerkinElmer Japan) device. The luminescence magnification of each well was calculated by comparing the wells with the antibody to the wells without the antibody.

SNG-M = SNG-M xenograft in huNOG mice, combination with carboplatin; format: in vivo; conditions: 30 days after transplantation; CS4135 0.5 mg/kg iv day 13, carboplatin 40 mg/kg ip days 13, 16, 20
Procedure: In this test, NOG (huNOG) mice (described in the aforementioned Example 13) transplanted with human uterus cancer cell line SNG-M and human CD34-positive cells were used. The SNG-M cell line was transplanted subcutaneously to the right flank of the mice, and the mice were divided into groups 13 days after transplantation. Individuals whose tumor volume reached 130 to 244 mm^3 were divided into groups. Vehicle 1 and CS4135 were administered into the mouse tail vein 13 days after transplantation. PBS containing 0.05% Tween-20 was used as Vehicle 1. Vehicle 2 and carboplatin (Bristol Myers Squibb Company) were administered intraperitoneally to the mice 13, 16, and 20 days after transplantation. Physiological saline was used as Vehicle 2.
Tumor volume was measured 13, 16, 20, 23, 26, and 30 days after transplantation, and the average tumor volume was indicated for each group.
The tumor volume was calculated by the following equation: […]
Tumor Growth Inhibition (TGI) was calculated by the following equation: […]

B1: PPU4135: anti-CLDN6/Dual-Fab tri-specific antibody, chains SEQ ID NOs 42, 51, 56, 69; CS4135 same antibody (protein)
chain 1: QVQLVESGGGVVQPGGSLRLSCAASGFTFSSYTMSWVRQAPGQGLEWMGTISSGGGRTYYPDSVKGRFTISRDNSKNTLYLQMNSLRDEDTAVYYCARGDYRYDGFAYWGEGTLVTVSSASTKGPSVFPLAPSSKSTSGGTAALGCLVEDYFPEPVTVSWNSGALTSGVHTFPAVLESSGLYSLSSVVTVPSSSLGTQTYICNVNHKPSNTKVDKRVEPKSCDKTHTCPPCPAPEAAGGPSVFLFPPKPKDTLMISRTPEVTCVVVDVSHEDPEVKFNWYVDGVEVHNAKTKPREEQYASTYRVVSVLTVLHQDWLNGKEYKCKVSNKALPAPIEKTISKAKGQPREPQVYTLPPSREEMTKNQVSLTCLVKGFYPSDIAVEWESNGQPENNYKTTPPVLDSDGSFFLYSKLTVDKSRWQQGNVFSCSVMHEALHNHYTQESLSLSP
chain 2: DIQMTQSPSSLSASVGDRVTITCRASYNIDSYLAWYQQKPGKAPELLIYYSTLLVDGVPDRFSGSRSGTDFTLTISSLQPEDFATYYCQHYYSIPYTFGQGTKVEIERTVAAPSVFIFPPSDEQLKSGTAKVVCLLNNFYPREAKVQWKVDNALQSGNSKESVTEQDSKDSTYSLSSTLTLSKADYEKHKVYACEVTHQGLSSPVTKSFNRGEC
chain 3: QVQLVESGGGLVQPGRSLRLSCAASGFKFSNVWFHWVRQAPGKGLEWVAQIKDYYNAYAAYYAPSVKGRFTISRDDSKNSIYLQMNSLKTEDTAVYYCHYVHYASASTLLPAEGVDAWGQGTTVTVSSASTKGPSVFPLAPSSKSTSGGTAALGCLVKDYFPEPVTVSWNSGALTSGVHTFPAVLKSSGLYSLSSVVTVPSSSLGTQTYICNVNHKPSNTKVDKRVEPKSCDKTHTCPPCPAPEAAGGPSVFLFPPKPKDTLMISRTPEVTCVVVDVSHEDPEVKFNWYVDGVEVHNAKTKPREEQYASTYRVVSVLTVLHQDWLNGKEYKCKVSNKALPAPIEKTISKAKGQPREPQVYTLPPSRKEMTKNQVSLTCLVKGFYPSDIAVEWESNGQPENNYKTTPPVLDSDGSFFLYSKLTVDKSRWQQGNVFSCSVMHEALHNHYTQKSLSLSP
chain 4: DIVMTQSPLSLPVTPGEPASISCQPSQEVVHMNRNTYLHWYQQKPGQAPRLLIYKVSNRFPGVPDRFSGSGSGTDFTLKISRVEAEDVGVYYCAQGTSHPFTFGQGTKLEIKRTVAAPSVFIFPPSDEQLKSGTAEVVCLLNNFYPREAKVQWKVDNALQSGNSEESVTEQDSKDSTYSLSSTLTLSKADYEKHKVYACEVTHQGLSSPVTKSFNRGEC
Human CLDN6 VLP
  ka: 217000 M⁻¹ s⁻¹
  kd: 0.000794 s⁻¹
Cyno CLDN6 VLP
  ka: 218000 M⁻¹ s⁻¹
  kd: 0.000821 s⁻¹
[1]; PPU4135 90 micro g/kg compared with CS3348 100 micro g/kg
  hepatobiliary damage parameters and inflammatory marker elevations: dramatically mitigated
[1]; male animals, after single IV administration
  AST, ALT, GLDH, ALP, TBIL, GGT, TBA and CRP: Increased
[1]; male animals, until Day 8, PPU4135 90 vs CS3348 100 micro g/kg single IV
  plasma exposure levels: comparable
[2]
  T cell activation ability via CD3: enhanced
SNG-M
  Tumor growth inhibition: TGI: 35%
